# Measurements from the Immune Epitope Database (IEDB).
# Columns and labels:
# HLA-B*58:01 = test: IEDB peptide-MHC binding, purified MHC/direct/fluorescence; filed as Kd, often an IC50 or EC50 that approximates it; ≥ and ≤ were set here for values at or beyond the usual limits of such assays
# HLA-A*11:01 = test: as above
# HLA-A*01:01 = test: IEDB peptide-MHC binding, purified MHC/competitive/radioactivity; filed as Kd, often an IC50 or EC50 that approximates it; ≥ and ≤ were set here for values at or beyond the usual limits of such assays
# HLA-A*30:02 = test: as above
# HLA-A*24:02 = test: as above
# HLA-A*23:01 = test: as above
# HLA-A*26:01 = test: as above
# HLA-A*29:02 = test: as above
# HLA-B*08:01 = test: as above
# HLA-A*69:01 = test: IEDB peptide-MHC binding, purified MHC/direct/fluorescence; filed as Kd, often an IC50 or EC50 that approximates it; ≥ and ≤ were set here for values at or beyond the usual limits of such assays; details: source organism: Mycobacterium tuberculosis
# HLA-A*32:01 = test: IEDB peptide-MHC binding, purified MHC/competitive/radioactivity; filed as Kd, often an IC50 or EC50 that approximates it; ≥ and ≤ were set here for values at or beyond the usual limits of such assays
# HLA-A*02:01 = test: IEDB peptide-MHC binding, purified MHC/competitive/fluorescence; filed as Kd, often an IC50 or EC50 that approximates it; ≥ and ≤ were set here for values at or beyond the usual limits of such assays
# HLA-B*15:01 = test: IEDB peptide-MHC binding, purified MHC/direct/fluorescence; filed as Kd, often an IC50 or EC50 that approximates it; ≥ and ≤ were set here for values at or beyond the usual limits of such assays; details: source organism: Haemophilus influenzae
# HLA-A*03:01 = test: as above; details: source organism: Haemophilus influenzae
# HLA-A*31:01 = test: as above; details: source organism: Haemophilus influenzae
# [1] = source organism: SARS coronavirus Tor2
# [2] = source organism: Dengue virus 1 Brazil/97-11/1997
# [3] = source organism: Dengue virus 3 Martinique/1243/1999
# [4] = source organism: Vaccinia virus WR
# [5] = source organism: Mammarenavirus machupoense
# [6] = source organism: Vaccinia virus Copenhagen
# [7] = source organism: Haemophilus influenzae
# [8] = source organism: Dengue virus 2 Jamaica/1409/1983
# [9] = source organism: Mammarenavirus lassaense
# [10] = source organism: Lassa virus Josiah
sequence,measurement,setting,value
KTTFKPNTW,Kd,HLA-B*58:01; source organism: SARS-CoV1,0.157 µM
same,Kd,HLA-A*11:01; source organism: SARS-CoV1,≥ 32.6 µM
LAAEWVLAY,Kd,HLA-A*01:01; [1],0.0355 µM
same,Kd,HLA-A*30:02; [1],0.0163 µM
same,Kd,HLA-A*24:02; [1],≥ 41.1 µM
same,Kd,HLA-A*23:01; [1],≥ 40.3 µM
same,Kd,HLA-A*26:01; [1],0.0752 µM
same,Kd,HLA-A*29:02; [1],0.00047 µM
LAGAGLAFSL,Kd,HLA-B*08:01; [2],2.62 µM
LAIPPTAGVL,Kd,HLA-B*08:01; [3],11.9 µM
LLEIKDKEQY,Kd,HLA-A*01:01; [1],0.936 µM
same,Kd,HLA-A*30:02; [1],1.27 µM
same,Kd,HLA-A*24:02; [1],10.9 µM
same,Kd,HLA-A*23:01; [1],≥ 70 µM
same,Kd,HLA-A*26:01; [1],≥ 82.8 µM
same,Kd,HLA-A*29:02; [1],3.53 µM
LLHEVGITV,Kd,HLA-A*69:01,1.92 µM
LMKERISSE,Kd,HLA-B*08:01; [4],0.0819 µM
LTQKVVIFIL,Kd,HLA-B*08:01; [3],3.1 µM
MFGTRKNSF,Kd,HLA-B*08:01; [4],0.00204 µM
MTCGQPLSL,Kd,HLA-A*32:01; [4],0.00556 µM
MTSERTLAV,Kd,HLA-A*02:01; source organism: Yersinia pestis Nepal516,0.0577 µM
NLIIHTAAL,Kd,HLA-B*08:01; [4],0.00155 µM
RAEVSLHEV,Kd,HLA-A*01:01; [5],≥ 66.2 µM
same,Kd,HLA-A*30:02; [5],≥ 41.2 µM
same,Kd,HLA-A*24:02; [5],≥ 77.5 µM
same,Kd,HLA-A*23:01; [5],≥ 77.7 µM
same,Kd,HLA-A*26:01; [5],≥ 77.9 µM
same,Kd,HLA-A*29:02; [5],≥ 78.9 µM
RFLYIIKLVF,Kd,HLA-A*01:01; [1],1.06 µM
same,Kd,HLA-A*30:02; [1],1.19 µM
same,Kd,HLA-A*24:02; [1],0.0133 µM
same,Kd,HLA-A*23:01; [1],3.21e-05 µM
same,Kd,HLA-A*26:01; [1],16.6 µM
same,Kd,HLA-A*29:02; [1],1.05 µM
RIIMLNFSI,Kd,HLA-A*32:01; [6],≥ 77.8 µM
RKKARNTPF,Kd,HLA-B*08:01; source organism: Dengue virus 2 Peru/IQT2913/1996,0.0827 µM
RLFFIDWEY,Kd,HLA-B*15:01,0.296 µM
same,Kd,HLA-B*58:01; [7],0.19 µM
same,Kd,HLA-A*03:01,1.06 µM
same,Kd,HLA-A*31:01,0.905 µM
same,Kd,HLA-A*11:01; [7],5.27 µM
RLPNLFHIL,Kd,HLA-B*08:01; [4],0.0685 µM
RPKIKTNDI,Kd,HLA-B*08:01; [4],0.00211 µM
RREEEEAGVL,Kd,HLA-B*08:01; [8],2.16 µM
RTISESNTI,Kd,HLA-A*32:01; [4],0.96 µM
RVMVSPLAV,Kd,HLA-A*02:01; source organism: Influenza A virus H3N2,0.0009 µM
SIKSKSRRL,Kd,HLA-B*08:01; [4],0.0298 µM
SIYRMSYQF,Kd,HLA-A*32:01; [4],0.000798 µM
SLNITTLRAV,Kd,HLA-A*01:01; [9],≥ 70.4 µM
same,Kd,HLA-A*30:02; [9],1.7 µM
same,Kd,HLA-A*24:02; [9],≥ 70.3 µM
same,Kd,HLA-A*23:01; [9],≥ 70 µM
same,Kd,HLA-A*26:01; [9],≥ 69.7 µM
same,Kd,HLA-A*29:02; [9],≥ 71.4 µM
SMTKKFKTI,Kd,HLA-B*08:01; [4],0.151 µM
SNRAIFVPI,Kd,HLA-B*08:01; [4],0.127 µM
SQMERFNCS,Kd,HLA-B*08:01; [6],0.0388 µM
TKQTGSASSM,Kd,HLA-B*08:01; [8],1.44 µM
TPMMRHTIE,Kd,HLA-B*08:01; [2],0.00723 µM
TSSGDATTAY,Kd,HLA-A*01:01; [1],0.0638 µM
same,Kd,HLA-A*30:02; [1],0.606 µM
same,Kd,HLA-A*24:02; [1],≥ 70.3 µM
same,Kd,HLA-A*23:01; [1],≥ 70 µM
same,Kd,HLA-A*26:01; [1],0.646 µM
same,Kd,HLA-A*29:02; [1],0.0988 µM
TYHPNCINCL,Kd,HLA-A*01:01; [1],≥ 70.4 µM
same,Kd,HLA-A*30:02; [1],≥ 37.2 µM
same,Kd,HLA-A*24:02; [1],0.663 µM
same,Kd,HLA-A*23:01; [1],1.15 µM
same,Kd,HLA-A*26:01; [1],≥ 69.7 µM
same,Kd,HLA-A*29:02; [1],5.58 µM
VDINLIPLI,Kd,HLA-A*01:01; [9],19.5 µM
same,Kd,HLA-A*30:02; [9],≥ 76.9 µM
same,Kd,HLA-A*24:02; [9],2.95 µM
same,Kd,HLA-A*23:01; [9],1.61 µM
same,Kd,HLA-A*26:01; [9],≥ 77.9 µM
same,Kd,HLA-A*29:02; [9],≥ 78.9 µM
VISNLVLSY,Kd,HLA-A*32:01; [4],0.808 µM
VTDTNKFAHY,Kd,HLA-A*01:01; source organism: Variola virus,0.0136 µM
same,Kd,HLA-A*30:02; source organism: Variola virus,1.29 µM
same,Kd,HLA-A*24:02; source organism: Variola virus,≥ 70.3 µM
same,Kd,HLA-A*23:01; source organism: Variola virus,≥ 50.2 µM
same,Kd,HLA-A*26:01; source organism: Variola virus,≥ 69.7 µM
same,Kd,HLA-A*29:02; source organism: Variola virus,≥ 25.5 µM
VYALCTLLHL,Kd,HLA-A*01:01; [1],19.9 µM
same,Kd,HLA-A*30:02; [1],≥ 100 µM
same,Kd,HLA-A*24:02; [1],0.0767 µM
same,Kd,HLA-A*23:01; [1],0.0398 µM
same,Kd,HLA-A*26:01; [1],14 µM
same,Kd,HLA-A*29:02; [1],5.57 µM
YCNYSKYWY,Kd,HLA-A*01:01; [10],15.8 µM
same,Kd,HLA-A*30:02; [10],0.668 µM
same,Kd,HLA-A*24:02; [10],≥ 44.4 µM
same,Kd,HLA-A*23:01; [10],13.6 µM
same,Kd,HLA-A*26:01; [10],≥ 77.9 µM
same,Kd,HLA-A*29:02; [10],0.713 µM
YIESKRGVY,Kd,HLA-A*01:01; [1],0.145 µM
same,Kd,HLA-A*30:02; [1],0.047 µM
same,Kd,HLA-A*24:02; [1],≥ 77.6 µM
same,Kd,HLA-A*23:01; [1],≥ 77.8 µM
same,Kd,HLA-A*26:01; [1],0.735 µM
same,Kd,HLA-A*29:02; [1],0.0203 µM
YRIAKFLFM,Kd,HLA-B*08:01; [4],0.0168 µM
YYSLLMPIL,Kd,HLA-A*01:01; [1],≥ 78.1 µM
same,Kd,HLA-A*30:02; [1],≥ 81.1 µM
same,Kd,HLA-A*24:02; [1],≥ 77.6 µM
same,Kd,HLA-A*23:01; [1],≥ 43.9 µM
same,Kd,HLA-A*26:01; [1],13.7 µM
same,Kd,HLA-A*29:02; [1],≥ 75 µM
